Fold/wt and IC50 data for 20 molecules are collected here from patent US20090048164A1 (WALTER AND ELIZA HALL INSTITUTE OF MEDICAL RESEARCH, published 2009).

The labels stand for the following.
T1: Bcl-w
T1 chain: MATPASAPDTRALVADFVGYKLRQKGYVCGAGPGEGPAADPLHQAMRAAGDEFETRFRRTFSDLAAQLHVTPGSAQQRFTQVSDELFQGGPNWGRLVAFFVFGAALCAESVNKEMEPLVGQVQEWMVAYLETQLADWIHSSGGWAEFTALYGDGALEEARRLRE

B1: Bid BH3 I23A, phage-displayed (peptide)
peptide: QEDIIRNIARHLAQVGDSMDRSAPPG
notes: M13 phage display: FLAG-26mer-GGGT-g3(249-406)
B2: Bid BH3 P24A, phage-displayed (peptide)
peptide: QEDIIRNIARHLAQVGDSMDRSIAPG
notes: as for B1
B3: Bid BH3 N7A, phage-displayed (peptide)
peptide: QEDIIRAIARHLAQVGDSMDRSIPPG
notes: as for B1
B4: Bid BH3 Q1A, phage-displayed (peptide)
peptide: AEDIIRNIARHLAQVGDSMDRSIPPG
notes: as for B1
B5: Bid BH3 R6A, phage-displayed (peptide)
peptide: QEDIIANIARHLAQVGDSMDRSIPPG
notes: as for B1
B6: Bid BH3 L12A, phage-displayed (peptide)
peptide: QEDIIRNIARHAAQVGDSMDRSIPPG
notes: as for B1
B7: Bid BH3 I4A, phage-displayed (peptide)
peptide: QEDAIRNIARHLAQVGDSMDRSIPPG
notes: as for B1
B8: Bid BH3 I5A, phage-displayed (peptide)
peptide: QEDIARNIARHLAQVGDSMDRSIPPG
notes: as for B1
B9: Bid BH3 D20A, phage-displayed (peptide)
peptide: QEDIIRNIARHLAQVGDSMARSIPPG
notes: as for B1
B10: Bid BH3 R10A, phage-displayed (peptide)
peptide: QEDIIRNIAAHLAQVGDSMDRSIPPG
notes: as for B1
B11: Bid BH3 V15A, phage-displayed (peptide)
peptide: QEDIIRNIARHLAQAGDSMDRSIPPG
notes: as for B1
B12: Bid BH3 S18A, phage-displayed (peptide)
peptide: QEDIIRNIARHLAQVGDAMDRSIPPG
notes: as for B1
B13: Bid BH3 I8A, phage-displayed (peptide)
peptide: QEDIIRNAARHLAQVGDSMDRSIPPG
notes: as for B1
B14: Bid BH3 S22A, phage-displayed (peptide)
peptide: QEDIIRNIARHLAQVGDSMDRAIPPG
notes: as for B1
B15: Bid BH3 D3A, phage-displayed (peptide)
peptide: QEAIIRNIARHLAQVGDSMDRSIPPG
notes: as for B1
B16: Bid BH3 R21A, phage-displayed (peptide)
peptide: QEDIIRNIARHLAQVGDSMDASIPPG
notes: as for B1
B17: Bid BH3 E2A, phage-displayed (peptide)
peptide: QADIIRNIARHLAQVGDSMDRSIPPG
notes: as for B1
B18: Bid BH3 A13E, phage-displayed (peptide)
peptide: QEDIIRNIARHLEQVGDSMDRSIPPG
notes: as for B1
B19: Bid BH3 Q14A, phage-displayed (peptide)
peptide: QEDIIRNIARHLAAVGDSMDRSIPPG
notes: as for B1
B20: Bid BH3 H11A, phage-displayed (peptide)
peptide: QEDIIRNIARALAQVGDSMDRSIPPG
notes: as for B1

For orientation: IC50 means the concentration that gives 50% inhibition. A low value points to inhibition by little substance.

The experiment deals with T1, Bcl-w. The experiment is described as follows: competition phage ELISA.
With B1, the Fold/wt came to 1 fold and the IC50 was 18 nM.
For B2, in that order: 1 fold and 25 nM.
In the same order, the values of B3 are 1 fold and 25 nM.
For B4, in that order: 1 fold and 29 nM.
As for B5, the Fold/wt worked out at 2 fold and the IC50 is 42 nM.
In the case of B6, the Fold/wt was found to be 25 fold and the IC50 was 553 nM.
In the same order, the values of B7 are 1 fold and 23 nM.
In the same order, the values of B8 are 2 fold and 34 nM.
In the same order, the values of B9 are 1 fold and 24 nM.
The molecule B10 gave a Fold/wt of 2 fold and an IC50 of 46 nM.
Turning to B11, the Fold/wt stood at 3 fold and the half-maximal inhibitory concentration (IC50) turned out to be 59 nM.
For B12, in that order: 1 fold and 31 nM.
For B13, in that order: 8 fold and 182 nM.
Turning to B14, the Fold/wt was 1 fold and the IC50 was 27 nM.
On to B15, for which the Fold/wt turned out to be 1 fold and the IC50 came to 34 nM.
For B16, in that order: 2 fold and 52 nM.
The molecule B17 displayed a Fold/wt of 2 fold and an IC50 of 34 nM.
In the same order, the values of B18 are 11 fold and 253 nM.
In the same order, the values of B19 are 1 fold and 25 nM.
For B20, in that order: 1 fold and 17 nM.
